# Laboratory results as given in patent US7470668B2, “Method of use of specific natriuretic peptide receptor c ligands, transgenic non-human mammals expressing specific natriuretic peptide receptor c antagonists and cells thereof” (Enobia Pharma Inc., priority 2005, dated 2008).
# B1: rhOstn[27-133]: N-terminal 6 histidine-tagged recombinant human Ostn amino acids 27-133 produced in E.coli, SEQ ID NO: 57 (protein)
# chain: SVDVTTTEAFDSGVIDVQSTPTVREEKSATDLTAKLLLLDELVSLENDVIETKKKRSFSGFGSPLDRLSAGSVDHKGKQRKVVDHPKRRFGIPMDRIGRNRLSNSRG
# modifications: N-terminal His6 tag; recombinant mature osteocrin
# System: OVX rat
# Assay: Aged rat ovariectomy osteoporosis model, femoral BMD
# Format: in vivo
# Settings: daily sub-cutaneous injections for 4 weeks, started 4 weeks post-OVX
# Excerpt: The most widely used non-primate model for pre-clinical osteoporosis studies is the aged rat ovariectomy model (OVX rat). In this model, rapid trabecular bone loss occurs within the first month after ovariectomy (OVX) with an upregulation of both osteoblast and osteoclast activity resulting in increased bone turnover. However, similar to osteoporosis, the levels of osteoclast activity exceed those of osteoblast activity resulting in an imbalance in remodelling and consequently bone loss. […]
# Thus, for the testing of potential therapeutic compounds in such a model one has two choices of approach. […] Efficacy can then be measured by assessing the ability of the compound to replace already lost bone. […]
# The second approach was adopted to allow the Ostn's therapeutic potential through both anabolic and anti-resorptive efficacies to be assessed. […] Rats were left for a 4-week period following ovariectomy or sham-operation for bone loss to occur and at this point bone loss was assessed by X-ray and DEXA before proceeding with the experiment (groups 1+2). […]
# FIG. 10 represents the femoral BMD (i.e. The amount of mineralized bone tissue in a given area, usually calculated as grams per square centimeter) as measured by Piximus™ on excised femurs fixed in 70% ethanol. […]
molecule,measurement,value
B1,gain in femoral BMD over OVX-saline or OVX-mock treated rats,6%
